Measured values reported in patent US20130058955A1 (Genentech, published 2013).
Like-named read-outs stand apart in the source and are kept apart here.

Key:
[1] = target: T1, linear diubiquitin (Boston Biochem) (human, UniProt P0CG48 1-152); assay: phage IC50 competition ELISA: soluble linear diUb against plate-coated linear diUb for the 1D8.3C2 Fab-phage
T1 construct: Bought product

[2] = target: T2, monoubiquitin (Boston Biochem) (human, UniProt P0CG48 1-76); assay: phage specificity ELISA, 1 ug/mL coated antigen, anti-M13-HRP
T2 construct: Bought product

[3] = target: T3, K48-linked diubiquitin (Boston Biochem) (human, UniProt P0CG48 1-76, isopeptide bond between the C-terminus of one ubiquitin and Lys48 of the other); assay: as above
T3 construct: Bought product; also called K48 diUb

[4] = target: T4, K11-linked diubiquitin (Genentech) (human, UniProt P0CG48 1-76, isopeptide bond between the C-terminus of one ubiquitin and Lys11 of the other); assay: as above
T4 construct: also called K11 diUb

[5] = target: T1, linear diubiquitin (Boston Biochem); assay: phage IC50 competition ELISA with soluble linear diubiquitin
Method: (§1) An initial titer ELISA was done to determine the amount of phage at which a signal of OD₄₅₀=0.5 would be achieved. […] The coated plates were blocked with 200 μL/well of 2.5% milk in PBST for one hour at 25° C. with shaking. Twelve two-fold serial dilutions of the phage were made in 2.5% milk in PBST from OD₂₆₈=4.0 to OD₂₆₈=0.002. After one hour, the blocking buffer was dumped off of the plate and 100 μL/well of each phage dilution was added and incubated at 25° C. for 15 minutes with shaking. The plate was then washed six times with PBST using a plate washer. A 1:5000 dilution of an anti-M13 phage-HRP-conjugated secondary antibody (GE Healthcare) in PBST was used for detection of phage binding. 100 μL/well of the secondary dilution was added and the plate was incubated at 25° C. for 30 minutes with shaking. The plate was then washed 12 times with PBST using a plate washer and twice with PBS manually. Bound secondary antibody was detected using a TMB substrate (KPL) followed by quenching with an equal volume of 1 M phosphoric acid.

[6] = target: T2, monoubiquitin (Boston Biochem); assay: phage specificity ELISA, 1 ug/mL coated antigen, anti-M13-HRP; remark: listed apart in the source
[7] = target: T3, K48-linked diubiquitin (Boston Biochem); assay: as above; remark: listed apart in the source
[8] = target: T4, K11-linked diubiquitin (Genentech); assay: as above; remark: listed apart in the source
[9] = target: T1, linear diubiquitin (Boston Biochem); assay: western blot, 1 ug/mL IgG, LI-COR Odyssey quantification; Ub2 bands seen at 37 (faint), 111, 333 and 1000 ng
[10] = target: T1, linear diubiquitin (Boston Biochem); assay: western blot, 1 ug/mL IgG, LI-COR Odyssey quantification; Ub2 bands seen at 111 (faint), 333 and 1000 ng
[11] = target: T2, monoubiquitin (Boston Biochem); assay: phage spot ELISA, 2 ug/mL coated antigen, anti-M13-HRP
Method: (§2) Ninety-six individual clones from the second round of sorting of the VH library, 192 clones from the third round of sorting of the VH library, 96 clones from the fourth round of sorting of the VH library, and 192 clones from the fourth round of sorting of the common light chain library were screened. […] Individual clones were grown up in a 96-well format in 1 mL of 2YT broth containing 50 μg/mL carbenicillin and 1×10¹⁰ phage/mL M13K07 helper phage at 37° C. overnight with shaking. Cells were pelleted by spinning at 3000 rpm for ten minutes. […] All of the Fab libraries contain a carboxy-terminal gD tag on the light chain which allows for assessment of display level by anti-gD antibody binding. The panel of ubiquitin proteins was immobilized on 384-well Maxisorb immunoplates (NUNC). Plates were coated at 4° C. overnight with 2 μg/mL of each protein in 50 mM sodium carbonate buffer, pH 9.6. The coated plates were blocked with 60 μL/well of 2.5% milk in PBST for one hour at 25° C. with shaking. After one hour, the blocking buffer was dumped off of the plate and 20 μL/well of PBST and 10 μL/well of phage supernatant were added. Plates were incubated at 25° C. for one hour with shaking. The plate was then washed six times with PBST by manually filling the wells and dumping off the wash buffer. A 1:5,000 dilution of an anti-M13 horseradish peroxidase (HRP)-conjugated secondary antibody (GE Healthcare) in PBST was used for detection of phage binding. 30 μL/well of the secondary dilution was added and the plate was incubated at 25° C. for 30 minutes with shaking. The plate was then washed six times with PBST and twice with PBS, both manually. Bound secondary antibody was detected using a TMB substrate (KPL) followed by quenching with an equal volume of 1 M phosphoric acid. The absorbance was read at 450 nm.

[12] = target: T4, K11-linked diubiquitin (Genentech); assay: as above
Method: as §2

[13] = target: T5, K63-linked polyubiquitin 2-7 (Boston Biochem) (human, UniProt P0CG48 1-76, isopeptide bonds between the C-terminus of one ubiquitin and Lys63 of the next); assay: as above
T5 construct: also called K63-linked chains
Method: as §2

[14] = target: T6, K48-linked polyubiquitin 2-7 (Boston Biochem) (human, UniProt P0CG48 1-76, isopeptide bonds between the C-terminus of one ubiquitin and Lys48 of the next); assay: as above
T6 construct: also called K48-linked chains
Method: as §2

[15] = target: T1, linear diubiquitin (Boston Biochem); assay: phage IC50 competition ELISA: Fab-phage with titrated soluble linear diubiquitin, unbound phage caught on coated linear diubiquitin; clone 1D8
Method: as §1

B1: 1D8.3C2, Fab displayed on phage (Fab, V domains shown)
VH: EVQLVESGGGLVQPGGSLRLSCAASGFTFTDYDIHWVRQAPGKGLEWVAWISPYSGYTDYADSVKGRFTISADTSKNTAYLQMNSLRAEDTAVYYCAREAGSRLLSVMDYWGQGTLVTVSS
VL: DIQMTQSPSSLSASVGDRVTITCRASQGVDNSVAWYQQKPGKAPKLLIYSASFLYSGVPSRFSGSGSGTDFTLTISSLQPEDFATYYCQQSYTTPPTFGQGTKVEIK
notes: Fab on M13 phage
- binding result [1]: binds

B2: 1F11/3F5 double mutant, Fab displayed on phage (Fab, V domains shown)
VH: EVQLVESGGGLVQPGGSLRLSCAASGFTFSNTYISWVRQAPGKGLEWVASITPSSGQTDYADSVKGRFTISADTSKNTAYLQMNSLRAEDTAVYYCARTWLLRWVMDYWGQGTLVTVSS
VL: DIQMTQSPSSLSASVGDRVTITCRASQDVSTAVAWYQQKPGKAPKLLIYSAKFLYSGVPSRFSGSGSGTDFTLTISSLQPEDFATYYCQQSYTTPPTFGQGTKVEIK
notes: S52K (L2) and S56Q (H2)
- binding result [2]: no binding (tested: phage OD268 1)
- binding result [3]: no binding (tested: phage OD268 1)
- binding result [4]: no binding (tested: phage OD268 1)
- IC50 [5]: 5 nM

B3: 2C11/3F5 double mutant, Fab displayed on phage (Fab, name in Kabat numbering, V domains shown)
VH: EVQLVESGGGLVQPGGSLRLSCAASGFTFSNTYISWVRQAPGKGLEWVASITPSSGQTDYADSVKGRFTISADTSKNTAYLQMNSLRAEDTAVYYCARTWLLRWVMDYWGQGTLVTVSS
VL: DIQMTQSPSSLSASVGDRVTITCRASQDVSTAVAWYQQKPGKAPKLLIYSASFLYSGVPSRFSGSGSGTDFTLTISSLQPEDFATYYCQQSYTQPPTFGQGTKVEIK
- IC50 [5]: 10 nM
- binding result [6]: no binding (tested: phage OD268 1)
- binding result [7]: no binding (tested: phage OD268 1)
- binding result [8]: no binding (tested: phage OD268 1)

B4: 2H5/3F5 double mutant, Fab displayed on phage (Fab, name in Kabat numbering, V domains shown)
VH: EVQLVESGGGLVQPGGSLRLSCAASGFTFSNTYISWVRQAPGKGLEWVASITPSSGQTDYADSVKGRFTISADTSKNTAYLQMNSLRAEDTAVYYCARTWLLRWVMDYWGQGTLVTVSS
VL: DIQMTQSPSSLSASVGDRVTITCRASQDVSTAVAWYQQKPGKAPKLLIYSASFLYSGVPSRFSGSGSGTDFTLTISSLQPEDFATYYCQQSYTNPPTFGQGTKVEIK
- IC50 [5]: 8 nM
- binding result [6]: no binding (tested: phage OD268 1)
- binding result [7]: no binding (tested: phage OD268 1)
- binding result [8]: no binding (tested: phage OD268 1)

B5: 3F5/Y102L IgG (antibody, V domains shown)
VH: EVQLVESGGGLVQPGGSLRLSCAASGFTFSNTYISWVRQAPGKGLEWVASITPSSGQTDYADSVKGRFTISADTSKNTAYLQMNSLRAEDTAVYYCARTWLLRWVMDLWGQGTLVTVSS
VL: DIQMTQSPSSLSASVGDRVTITCRASQDVSTAVAWYQQKPGKAPKLLIYSASFLYSGVPSRFSGSGSGTDFTLTISSLQPEDFATYYCQQSYTTPPTFGQGTKVEIK
notes: Human kappa IgG1
- signal of the Ub2 band at 1000 ng linear diUb (number under the arrow) [9]: 18

B6: 1F11/3F5/Y102L IgG (antibody, V domains shown)
VH: EVQLVESGGGLVQPGGSLRLSCAASGFTFSNTYISWVRQAPGKGLEWVASITPSSGQTDYADSVKGRFTISADTSKNTAYLQMNSLRAEDTAVYYCARTWLLRWVMDLWGQGTLVTVSS
VL: DIQMTQSPSSLSASVGDRVTITCRASQDVSTAVAWYQQKPGKAPKLLIYSAKFLYSGVPSRFSGSGSGTDFTLTISSLQPEDFATYYCQQSYTTPPTFGQGTKVEIK
notes: also called triple mutant; hybrid anti-linear polyubiquitin antibody
- signal of the Ub2 band at 1000 ng linear diUb (number under the arrow) [9]: 15.5

B7: 1F11/3F5/Y102L T110A (antibody, V domains shown)
VH: EVQLVESGGGLVQPGGSLRLSCAASGFTFSNTYISWVRQAPGKGLEWVASITPSSGQTDYADSVKGRFTISADTSKNTAYLQMNSLRAEDTAVYYCARTWLLRWVMDLWGQGTLVAVSS
VL: DIQMTQSPSSLSASVGDRVTITCRASQDVSTAVAWYQQKPGKAPKLLIYSAKFLYSGVPSRFSGSGSGTDFTLTISSLQPEDFATYYCQQSYTTPPTFGQGTKVEIK
notes: also called 1F11/3F5/Y102L T110A IgG
- signal of the Ub2 band at 1000 ng linear diUb (number under the arrow) [9]: 5.5

B8: 1F11/Y102L T110A (antibody, V domains shown)
VH: EVQLVESGGGLVQPGGSLRLSCAASGFTFSNTYISWVRQAPGKGLEWVASITPSSGSTDYADSVKGRFTISADTSKNTAYLQMNSLRAEDTAVYYCARTWLLRWVMDLWGQGTLVAVSS
VL: DIQMTQSPSSLSASVGDRVTITCRASQDVSTAVAWYQQKPGKAPKLLIYSAKFLYSGVPSRFSGSGSGTDFTLTISSLQPEDFATYYCQQSYTTPPTFGQGTKVEIK
notes: also called 1F11/Y102L T110A IgG
- signal of the Ub2 band at 1000 ng linear diUb (number under the arrow) [10]: 8.4

B9: 1A10, Fab displayed on phage (Fab, V domains shown)
VH: EVQLVESGGGLVQPGGSLRLSCAASGFNIYYSSIHWVRQAPGKGLEWVASIYPYYGYTSYADSVKGRFTISADTSKNTAYLQMNSLRAEDTAVYYCARGYSWYYGSPAFDYWGQGTLVTVSS
VL: DIQMTQSPSSLSASVGDRVTITCRASQSVSSAVAWYQQKPGKAPKLLIYSASSLYSGVPSRFSGSRSGTDFTLTISSLQPEDFATYYCQQHYTTPPTFGQGTKVEIK
notes: Fab on M13 phage
- binding result [11]: no binding
- binding result [12]: no binding
- binding result [13]: no binding
- binding result [14]: no binding

B10: 1D8, Fab displayed on phage (Fab, V domains shown)
VH: EVQLVESGGGLVQPGGSLRLSCAASGFTFTDYDIHWVRQAPGKGLEWVAGISPYGGYTDYADSVKGRFTISADTSKNTAYLQMNSLRAEDTAVYYCAREAGSRLLSVMDYWGQGTLVTVSS
VL: DIQMTQSPSSLSASVGDRVTITCRASQDVSTAVAWYQQKPGKAPKLLIYSASFLYSGVPSRFSGSGSGTDFTLTISSLQPEDFATYYCQQSYTTPPTFGQGTKVEIK
notes: Fab on M13 phage (heavy chain fused to gpIII, gD tag on light chain); Fab-zip (bivalent) in the first spot ELISA, monovalent afterwards; also called parental wild-type 1D8
- IC50 [15]: ~5000 nM
